These results are taken from article PMC2880635.

Changes are numbered by the printed parent chain. Names may count otherwise.

Substrate in the series: O=[N+]([O-])c1ccc(OP(=O)(O)O)cc1
The series is described as follows: purified protein, by the assay type. To be noted: other: substrate pNPP.

Setting [1] is: Sts-1PGM, pH 5.0, 37 °C, pH 5.0.
Where [2] appears, read: Sts-1PGM, pH 7.5, 37 °C, pH 7.5.
Setting [3] is: Sts-2PGM(E481V), pH 5.0, 37 °C, pH 5.0.
Where [4] appears, read: Sts-2PGM(E481V), pH 7.5, 37 °C, pH 7.5.
[5] abbreviates: Sts-2PGM wild-type, pH 5.0, 37 °C, pH 5.0.
[6] abbreviates: Sts-2PGM wild-type, pH 7.5, 37 °C, pH 7.5.
Where [7] appears, read: Sts-2PGM(S552A/S582Y), pH 5.0, 37 °C, pH 5.0.
[8] abbreviates: Sts-2PGM(S552A/S582Y), pH 7.5, 37 °C, pH 7.5.
Where [9] appears, read: Sts-2PGM(Q372V/S582Y), pH 7.5, 37 °C, pH 7.5.
The mark [10] stands for this setting: Sts-2PGM(A446S/S552A), pH 7.5, 37 °C, pH 7.5.

B1: Sts-1PGM (Mus musculus) (protein)
chain: GPQKRCLFVCRHGERMDVVFGKYWLSQCFDAKGRYIRTNLNMPHSLPQRSGGFRDYEKDAPITVFGCMQARLVGEALLESNTVIDHVYCSPSLRCVQTAHNILKGLQQDNHLKIRVEPGLFEWTKWVAGSTLPAWIPPSELAAANLSVDTTYRPHIPVSKLAISESYDTYINRSFQVTKEIISECKSKGNNILIVAHASSLEACTCQLQGLSPQNSKDFVQMVRKIPYLGFCSCEELGETGIWQLTDPPILPLTHGPTGGFNWRETLLQE
Turning to B1, under setting [1], the Km was determined as 20 ± 9 µM, the kcat was determined as 63.4 s⁻¹ and the kcat/Km worked out at 3.15e+06 M⁻¹ s⁻¹. Under setting [2], the Km was 500 ± 60 µM, the kcat was 70 s⁻¹ and the specificity constant (kcat/Km) came out at 141000 M⁻¹ s⁻¹.

B2: Sts-2PGM(E481V) (Mus musculus; E481V) (protein)
chain: ATISRRGILVVRHGERVDQVFGKSWLQQCTTADGKYYRPDLNFPRSLPRRSNGIKDFENDPPLSSCGIFQARLAGEALLDSGVRVTAVFASPALRCVQTAKHILEELKLEKKLKIRVEPGIFEWMKWVASKATLTFLTLEELKEANFNVDLDYRPALPRCSLMPAESYDQYVERCAVSMGQIINTCPQDMGITLIVSHSSALDSCTRPLLGLPPRECGDFAQLVRKIPSLGMCFCEENREDGKWDLVNPPVKTLTHGANSVFNWRNWISSN
B2: under setting [3], the Km came out at 200 ± 20 µM, the kcat stood at 0.65 s⁻¹ and the kcat/Km was found to be 3100 M⁻¹ s⁻¹. For the same protein, under setting [4], the Km was determined as 1000 ± 150 µM, the kcat amounted to 0.15 s⁻¹ and the catalytic efficiency (kcat/Km) amounted to 150 M⁻¹ s⁻¹.

B3: Sts-2PGM (Mus musculus) (protein)
chain: B2 chain with V128E
With B3, under setting [5], the Km was 1500 ± 80 µM, the turnover number (kcat) turned out to be 0.3 s⁻¹ and the kcat/Km amounted to 200 M⁻¹ s⁻¹. Besides, under setting [6], the Km was 2000 ± 130 µM, the turnover number (kcat) stood at 0.03 s⁻¹ and the kcat/Km turned out to be 15 M⁻¹ s⁻¹.

B4: Sts-2PGM(S552A/S582Y) (Mus musculus; S552A/S582Y) (protein)
chain: B2 chain with V128E, S199A, S229Y
On to B4, for which, under setting [7], the Km turned out to be 620 ± 100 µM, the turnover number (kcat) worked out at 2.9 s⁻¹ and the kcat/Km was found to be 4700 M⁻¹ s⁻¹. In addition, under setting [8], the Km amounted to 1900 ± 200 µM, the turnover number (kcat) amounted to 0.43 s⁻¹ and the kcat/Km was found to be 226 M⁻¹ s⁻¹.

B5: Sts-2PGM(Q372V/S582Y) (Mus musculus; Q372V/S582Y) (protein)
chain: B2 chain with Q19V, V128E, S229Y
As for B5, under setting [9], the Km worked out at 700 ± 100 µM, the catalytic constant (kcat) worked out at 0.4 s⁻¹ and the kcat/Km worked out at 571 M⁻¹ s⁻¹.

B6: Sts-2PGM(A446S/S552A) (Mus musculus; A446S/S552A) (protein)
chain: B2 chain with A93S, V128E, S199A
For B6, under setting [10], the Michaelis-Menten constant (Km) turned out to be 640 ± 80 µM, the kcat is 0.27 s⁻¹ and the kcat/Km is 420 M⁻¹ s⁻¹.

Broadly, the Km is the concentration of substrate that gives half-maximal velocity. As a reminder, the kcat is the maximal rate divided by the concentration of active sites. In general, kcat/Km refers to the turnover number divided by the Michaelis constant.
